The text below walks through data of US20240216518A1 (HARPOON THERAPEUTICS, published 2024).

The target in one assay is T1, FLT3 TriTAC.
T1 construct: Single-chain trispecific; also called constitutively active FLT3 TriTAC
In words: biolayer interferometry. In general terms: In BLI a coated tip is dipped into the sample, and binding shifts an interference pattern.

The target of assay [1] is T2, stub:Active control; αCD19 T:A:C stub:Active.
T2 construct: Single-chain trispecific; also called TriTAC-XR active drug; constitutively active CD19 TriTAC
In words: ELISA on recombinant human CD3ε. In general terms: ELISA stands for enzyme-linked immunosorbent assay.

T1 sequence (chain, as listed by the source): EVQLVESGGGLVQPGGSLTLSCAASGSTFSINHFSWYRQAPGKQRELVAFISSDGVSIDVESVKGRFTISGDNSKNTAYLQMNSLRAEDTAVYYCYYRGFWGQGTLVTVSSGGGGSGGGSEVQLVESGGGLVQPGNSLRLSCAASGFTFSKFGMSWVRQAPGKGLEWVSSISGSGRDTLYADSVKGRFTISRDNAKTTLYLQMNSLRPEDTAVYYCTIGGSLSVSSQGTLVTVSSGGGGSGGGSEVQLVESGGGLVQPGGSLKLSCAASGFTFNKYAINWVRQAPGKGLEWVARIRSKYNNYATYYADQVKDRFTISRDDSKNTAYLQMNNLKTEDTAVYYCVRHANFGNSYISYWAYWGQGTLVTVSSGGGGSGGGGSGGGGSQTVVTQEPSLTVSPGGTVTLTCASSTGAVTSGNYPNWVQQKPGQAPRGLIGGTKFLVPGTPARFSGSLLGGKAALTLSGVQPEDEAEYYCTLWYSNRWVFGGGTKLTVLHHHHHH
T2 sequence (chain, as listed by the source): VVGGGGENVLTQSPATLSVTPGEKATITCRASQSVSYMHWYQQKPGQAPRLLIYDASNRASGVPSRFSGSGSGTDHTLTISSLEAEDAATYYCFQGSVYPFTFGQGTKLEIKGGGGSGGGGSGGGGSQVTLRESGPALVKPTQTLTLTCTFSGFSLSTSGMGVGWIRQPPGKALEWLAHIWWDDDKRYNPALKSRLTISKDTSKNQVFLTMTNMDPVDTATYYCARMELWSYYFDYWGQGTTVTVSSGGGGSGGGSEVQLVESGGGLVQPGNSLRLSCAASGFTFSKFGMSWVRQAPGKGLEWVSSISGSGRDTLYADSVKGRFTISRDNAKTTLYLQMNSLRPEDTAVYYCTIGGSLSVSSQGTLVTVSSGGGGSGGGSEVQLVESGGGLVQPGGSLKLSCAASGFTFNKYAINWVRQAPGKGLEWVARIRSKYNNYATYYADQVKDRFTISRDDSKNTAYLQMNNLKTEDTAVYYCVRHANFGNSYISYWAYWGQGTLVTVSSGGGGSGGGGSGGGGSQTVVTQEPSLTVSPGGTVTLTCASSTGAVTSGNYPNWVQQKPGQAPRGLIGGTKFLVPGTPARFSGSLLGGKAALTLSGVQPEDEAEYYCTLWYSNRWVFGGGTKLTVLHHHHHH

B1: cynomolgus CD3 (receptor)
chain: QDGNEEMGSITQTPYQVSISGTTVILTCSQHLGSEAQWQHNGKNKEDSGDRLFLPEFSEMEQSGYYVCYPRGSNPEDASHHLYLKARVCENCMEMD
For orientation: Kd means the concentration at which binding is half-saturated. Lower therefore signals a tighter complex. B1 showed a Kd with FLT3 TriTAC of 3.3 nM.

B2: cynomolgus albumin (other, UniProt A2V9Z4 25-608, looked up)
chain: DTHKSEVAHRFKDLGEEHFKGLVLVAFSQYLQQCPFEEHVKLVNEVTEFAKTCVADESAENCDKSLHTLFGDKLCTVATLRETYGEMADCCAKQEPERNECFLQHKDDNPNLPPLVRPEVDVMCTAFHDNEATFLKKYLYEVARRHPYFYAPELLFFAARYKAAFAECCQAADKAACLLPKLDELRDEGKASSAKQRLKCASLQKFGDRAFKAWAVARLSQKFPKAEFAEVSKLVTDLTKVHTECCHGDLLECADDRADLAKYMCENQDSISSKLKECCDKPLLEKSHCLAEVENDEMPADLPSLAADYVESKDVCKNYAEAKDVFLGMFLYEYARRHPDYSVMLLLRLAKAYEATLEKCCAAADPHECYAKVFDEFQPLVEEPQNLVKQNCELFEQLGEYKFQNALLVRYTKKVPQVSTPTLVEVSRNLGKVGAKCCKLPEAKRMPCAEDYLSVVLNRLCVLHEKTPVSEKVTKCCTESLVNRRPCFSALELDEAYVPKAFNAETFTFHADMCTLSEKEKQVKKQTALVELVKHKPKATKEQLKGVMDNFAAFVEKCCKADDKEACFAEEGPKFVAASQAALA
notes: also called cynomolgus serum albumin
For the molecule B2, the Kd with FLT3 TriTAC was 4.4 nM.

B3: recombinant human CD3ε (receptor, UniProt P07766 23-126, looked up)
chain: DGNEEMGGITQTPYKVSISGTTVILTCPQYPGSEILWQHNDKNIGGDEDDKNIGSDEDHLSLKEFSELEQSGYYVCYPRGSKPEDANFYLYLRARVCENCMEMD
On to B3, for which, in assay [1], the binding result is reported as “binds”.

B4: cynomolgus FLT3 (receptor)
chain: NQDLPVIKCVLINHKNNDSSVGKSSSYPMVSESPEDLGCALRPQSAGTVYEAATVEVDVSASITLQVLVDTPGNISCLWVFKHSSLNCQPHFDVQNRGVVSMVILKMTETQAGEYLLFIQSEATNYTIVFTVSIRNTLLFTLRRPYFRKMENQDALVCISESVPEPIVEWVLCDSQGESCKEESPAVVKKEEKVLHELFGTDIRCCARNELGRECTRLFTIDLNQTPQTTLPQLFLKVGEPLWIRCKAVHVNHGFGLTWELENKALEEGSYFEMSTYSTNRTMIRILFAFVSSVARNDTGYYTCSSSKHPSQSALVTIVEKGFINATNSSEDYEIDQYEEFCFSVRFKAYPQIRCTWTFSRKAFPCEQKALDDGYSVSKFCNHKHQPGEYIFHAENGDAQFTKMFTLNIRRKPQVLAEASASQASCSSDGYPLPSWTWKKCSDKSPNCTEDIPEGVWNRKANRKVFGQWVSSSTLNMSEAMKGFLVKCCAYNSLGTSCETILLNSPGPFPFIQDS
With B4, the Kd in the assay with FLT3 TriTAC was 2.7 nM.
